The target in test [1] is C3d (human) (UniProt P01024). Put plainly: SEC; CIP and C3d loaded separately or mixed in equimolar concentration onto a Superdex column; MW from a calibration curve. On the technique in general: SEC sorts molecules by how far they enter the pores of the column.
Test [2] concerns the target C3d (human) (UniProt P01024). The experiment in a line: SPR; BIAcore X100; C3d covalently immobilised on CM5 chip (250 response units); CIP 0.0390-5 μM flowed; PBS with 0.005% Tween 20; 22°C; 1:1 Langmuir model; apparent Kd. (In general: SPR reads the build-up and loss of mass on a sensor chip optically.)
For test [3], the target named is C3d (human) (UniProt P01024). Put plainly: ELISA; 100 ng of C3, C3b or C3d coated; increasing concentrations of CIP; anti-CIP antibody; apparent Kd as reciprocal of fitted Ka. For orientation: In an ELISA, binding on a coated surface is turned into a signal by an enzyme label.
Another test addresses C3b (human) (UniProt P01024). The description is as above.
Another test addresses complement C3 (human). Described as above.

One may read the stoichiometry N as the number of molecules, sites or subunits per partner or assembly. What is called koff is the first-order rate constant of dissociation. As a reminder, the kon is a measure of how fast the partners come together.

Sequence of UniProt P01024 (P01024 1002-1303): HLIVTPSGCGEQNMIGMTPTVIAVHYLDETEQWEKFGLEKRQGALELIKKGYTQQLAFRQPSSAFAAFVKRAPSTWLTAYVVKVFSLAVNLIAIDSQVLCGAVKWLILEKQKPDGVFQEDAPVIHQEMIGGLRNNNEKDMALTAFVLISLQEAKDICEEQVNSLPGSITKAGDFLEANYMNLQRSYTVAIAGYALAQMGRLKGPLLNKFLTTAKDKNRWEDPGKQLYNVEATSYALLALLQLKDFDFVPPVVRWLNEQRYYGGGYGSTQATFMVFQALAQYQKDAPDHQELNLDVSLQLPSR

“complement interfering protein (CIP) (natural protein)” returned a stoichiometry N with C3d (human) [1] of 1. Also, the Kd was found to be 79 nM with C3d (human) [2], 76 nM in the test with C3d (human) [3], 82.4 nM with C3b (human) and 84.8 nM with complement C3 (human). Also, the dissociation rate constant (koff) with C3d (human) [2] was 0.00085 s⁻¹. Further, the kon with C3d (human) [2] was 10800 M⁻¹ s⁻¹.

Source of the values: paper PMC6404586.
